The values that follow come from doi:10.1101/2023.12.10.570962 (bioRxiv, 2023).

In this assay the target is Legionella collagen-like protein (Lcl) from L. pneumophila strain 130b, intact, residues 1-401 (Legionella pneumophila strain 130b). The assay is described as follows: SEC-MALS.

As for “Legionella collagen-like protein (Lcl) from L. pneumophila strain 130b, intact, residues 1-401 (natural protein)”, the stoichiometry N is 3.
